{
  "source": "paper PMC7152510",
  "about": "(Nature structural & molecular biology, 2017)",
  "key": {"[1]": {"biological_target": "ΔMIT katanin p60 (E293Q) (Caenorhabditis elegans)", "assay": "solution SAXS"}, "[2]": {"biological_target": "the molecule itself", "assay": "AUC"}, "[3]": {"biological_target": "the molecule itself", "assay": "AUC", "remark": "listed apart in the source"}},
  "note": "Like-named read-outs stand apart in the source and are kept apart here.",
  "data": [
    {"molecule": "ΔMIT katanin p60 (E293Q) (domain or fragment)", "values": [
      {"measurement": "stoichiometry N", "setting": "[1]", "result": 6}
    ]},
    {"molecule": "Caenorhabditis elegans katanin p60 (MEI-1), catalytic subunit, wild type (enzyme, UniProt P34808 1-472, looked up) MNGDVQSVIRGYLERAQVAKTMSDAGRWNEAGDLLRQLMTDVKSCKISASNRDEHDARNTFLRALEANLKLVQQNVRDEDDLHEAMTRQSGSPEPPADPDVWSKPSPPLPSSSKFGATKKGVGAAGPRPREISKSTSSMSTNPADVKPANPTQGILPQNSAGDSFDASAYDAYIVQAVRGTMATNTENTMSLDDIIGMHDVKQVLHEAVTLPLLVPEFFQGLRSPWKAMVLAGPPGTGKTLIARAIASESSSTFFTVSSTDLSSKWRGDSEKIVRLLFELARFYAPSIIFIDEIDTLGGQRGNSGEHEASRRVKSEFLVQMDGSQNKFDSRRVFVLAATNIPWELDEALRRRFEKRIFIPLPDIDARKKLIEKSMEGTPKSDEINYDDLAARTEGFSGADVVSLCRTAAINVLRRYDTKSLRGGELTAAMESLKAELVRNIDFEAALQAVSPSAGPDTMLKCKEWCDSFGAM", "values": [
      {"measurement": "stoichiometry N", "setting": "[2]", "result": 6}
    ]},
    {"molecule": "Caenorhabditis elegans katanin p60 (E293Q), Walker B mutant, full-length (enzyme, UniProt P34808 1-472, looked up) MNGDVQSVIRGYLERAQVAKTMSDAGRWNEAGDLLRQLMTDVKSCKISASNRDEHDARNTFLRALEANLKLVQQNVRDEDDLHEAMTRQSGSPEPPADPDVWSKPSPPLPSSSKFGATKKGVGAAGPRPREISKSTSSMSTNPADVKPANPTQGILPQNSAGDSFDASAYDAYIVQAVRGTMATNTENTMSLDDIIGMHDVKQVLHEAVTLPLLVPEFFQGLRSPWKAMVLAGPPGTGKTLIARAIASESSSTFFTVSSTDLSSKWRGDSEKIVRLLFELARFYAPSIIFIDQIDTLGGQRGNSGEHEASRRVKSEFLVQMDGSQNKFDSRRVFVLAATNIPWELDEALRRRFEKRIFIPLPDIDARKKLIEKSMEGTPKSDEINYDDLAARTEGFSGADVVSLCRTAAINVLRRYDTKSLRGGELTAAMESLKAELVRNIDFEAALQAVSPSAGPDTMLKCKEWCDSFGAM", "values": [
      {"measurement": "stoichiometry N", "setting": "[3]", "result": 6}
    ]}
  ]
}
